The target in this experiment is T1, myc-p53 (isotope-labeled myc-fused recombinant p53, made in vitro from pAS2-1-p53) (UniProt P02340 72-390, isotope-labeled).
T1 construct: Control of the coimmunoprecipitation
The experiment is described as follows: coimmunoprecipitation of isotope-labeled recombinant proteins, SDS-PAGE. From the text: In the second test, coding sequences of pAS2-1-CCR2b and pAS2-1-p53 were amplified by PCR using a T7 promoter, a 5′ primer encoding myc epitope: 5′[…] 3′ (SEQ ID NO:44) and a 3′ primer originating in p AS2-1: 5′[…]3′ (SEQ ID NO:45) to express an epitope-tagged protein. Similarly, pACT2-FROUNT was amplified by PCR using a T7 promoter, a 5′ primer encoding HA epitope: 5′[…]3′ (SEQ ID NO:46) and a 3′ primer originating in p ACT2: 3′[…]5′ (SEQ ID NO:47). Then, isotope-labeled recombinant proteins were produced in accordance with user's manual of […] Co-IP Kit (CLONTECH Laboratories, Inc.). By the coimmunoprecipitation method using these recombinant proteins, the specific binding ability between CCR2 and FROUNT was confirmed again (FIG. 2). […] Namely, coprecipitation occurred by using the HA- or Myc-specific antibody in the coexistence of myc-CCR2 and HA-FNT, the coprecipitation disappeared by adding an antigen peptide and no coprecipitation occurred in the case of myc-p53, thereby indicating specific binding ability.

The values that follow come from patent publication US20060008801A1 (EFFECTOR CELL INSTITUTE, published 2006).

T1 sequence (P02340 72-390): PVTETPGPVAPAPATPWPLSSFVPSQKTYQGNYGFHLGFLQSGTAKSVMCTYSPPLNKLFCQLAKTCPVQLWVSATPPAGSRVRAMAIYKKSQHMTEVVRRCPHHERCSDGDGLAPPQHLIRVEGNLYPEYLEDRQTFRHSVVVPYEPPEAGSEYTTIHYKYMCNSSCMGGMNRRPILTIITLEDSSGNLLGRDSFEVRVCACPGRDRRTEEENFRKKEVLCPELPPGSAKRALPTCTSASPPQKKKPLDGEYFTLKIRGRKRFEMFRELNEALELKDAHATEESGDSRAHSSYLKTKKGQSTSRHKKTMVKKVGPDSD

B1: HA-FNT (isotope-labeled HA-fused recombinant FROUNT protein, clone 19 part, made in vitro from pACT2-FROUNT) (other)
chain: LVSDRFLRDYCERGCFSDLDLIDNLGPAMMLSDRLTFLGKYREFHRMYGEKRFADAASLLLSLMTSRIAPRSFWMTLLTDALPLLEQKQVIFSAEQTYELMRCLEDLTSRRPVHGESDTEQLQDDDIETTKVEMLRLSLARNLARAIIREGSLEGS
modifications: isotope-labeled
notes: Co-IP Kit by PCR from pACT2-FROUNT; also called HA-tagged recombinant FROUNT protein; not shown: vector-encoded residues m
With B1, the binding result is “no binding”.
